Measurements as given in publication PMC2700392 (The Journal of Cell Biology, 2009).

Target: Nup170p (recombinant, released from GST by thrombin) (S. cerevisiae, UniProt P38181 1-1502)
Assay: pull-down

Nup170p (recombinant, released from GST by thrombin), sequence (P38181 whole entry): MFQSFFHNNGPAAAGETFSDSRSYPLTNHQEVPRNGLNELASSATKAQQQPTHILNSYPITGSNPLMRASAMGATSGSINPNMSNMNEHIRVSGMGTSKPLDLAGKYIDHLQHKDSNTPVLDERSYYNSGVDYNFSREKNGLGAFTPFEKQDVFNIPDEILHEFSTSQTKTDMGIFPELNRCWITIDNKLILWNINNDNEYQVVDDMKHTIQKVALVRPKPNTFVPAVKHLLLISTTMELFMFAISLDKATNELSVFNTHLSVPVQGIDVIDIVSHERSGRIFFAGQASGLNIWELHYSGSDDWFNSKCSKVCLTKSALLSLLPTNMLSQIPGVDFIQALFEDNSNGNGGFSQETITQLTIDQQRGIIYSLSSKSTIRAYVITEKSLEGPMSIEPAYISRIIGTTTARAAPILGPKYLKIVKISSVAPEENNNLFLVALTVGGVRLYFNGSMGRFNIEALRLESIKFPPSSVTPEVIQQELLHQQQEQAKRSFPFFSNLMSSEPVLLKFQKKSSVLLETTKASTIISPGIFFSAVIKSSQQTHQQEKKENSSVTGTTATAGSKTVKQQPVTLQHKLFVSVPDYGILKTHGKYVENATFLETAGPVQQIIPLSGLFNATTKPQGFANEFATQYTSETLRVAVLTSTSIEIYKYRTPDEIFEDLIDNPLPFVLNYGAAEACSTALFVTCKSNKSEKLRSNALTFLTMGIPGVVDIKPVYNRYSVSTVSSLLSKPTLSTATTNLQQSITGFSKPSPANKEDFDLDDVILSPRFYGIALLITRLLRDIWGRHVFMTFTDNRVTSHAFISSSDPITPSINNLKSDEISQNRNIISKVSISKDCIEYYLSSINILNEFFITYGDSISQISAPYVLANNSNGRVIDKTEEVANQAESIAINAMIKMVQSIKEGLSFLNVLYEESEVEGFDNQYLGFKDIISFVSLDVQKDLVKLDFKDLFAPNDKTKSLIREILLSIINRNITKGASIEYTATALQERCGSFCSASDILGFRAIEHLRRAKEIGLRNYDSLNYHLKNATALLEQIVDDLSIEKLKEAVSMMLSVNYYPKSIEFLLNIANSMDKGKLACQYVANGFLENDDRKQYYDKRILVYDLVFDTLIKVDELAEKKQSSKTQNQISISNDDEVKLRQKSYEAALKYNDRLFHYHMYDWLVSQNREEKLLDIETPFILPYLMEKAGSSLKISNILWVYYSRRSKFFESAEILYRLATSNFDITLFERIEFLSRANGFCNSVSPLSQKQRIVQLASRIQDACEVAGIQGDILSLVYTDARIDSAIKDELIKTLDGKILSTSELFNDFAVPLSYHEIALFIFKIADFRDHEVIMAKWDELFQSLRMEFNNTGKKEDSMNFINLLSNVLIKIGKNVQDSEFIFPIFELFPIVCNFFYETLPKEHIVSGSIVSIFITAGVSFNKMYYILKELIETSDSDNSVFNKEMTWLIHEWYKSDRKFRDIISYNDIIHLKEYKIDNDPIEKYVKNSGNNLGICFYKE

B1: GST-Pom152p^1-111 (domain or fragment, S. cerevisiae, UniProt P39685 1-111, looked up)
chain: MEHRYNVFNDTPRGNHWMGSSVSGSPRPSYSSRPNVNTTRRFQYSDDEPAEKIRPLRSRSFKSTESNISDEKSRISERDSKDRYINGDKKVDIYSLPLISTDVLEISKQRT
**Q.** Does B1 bind?
**A.** Result: binds
